Test results as given in patent publication US20240383984A1 (Genentech, published 2024).

T1: human FcRH5 protein fragment (soluble) (human, UniProt Q96RD9 16-851)
T1 construct: whole entry named; also called soluble human FcRH5; Human FcRH5 (BIACORE analyte)
T1 sequence: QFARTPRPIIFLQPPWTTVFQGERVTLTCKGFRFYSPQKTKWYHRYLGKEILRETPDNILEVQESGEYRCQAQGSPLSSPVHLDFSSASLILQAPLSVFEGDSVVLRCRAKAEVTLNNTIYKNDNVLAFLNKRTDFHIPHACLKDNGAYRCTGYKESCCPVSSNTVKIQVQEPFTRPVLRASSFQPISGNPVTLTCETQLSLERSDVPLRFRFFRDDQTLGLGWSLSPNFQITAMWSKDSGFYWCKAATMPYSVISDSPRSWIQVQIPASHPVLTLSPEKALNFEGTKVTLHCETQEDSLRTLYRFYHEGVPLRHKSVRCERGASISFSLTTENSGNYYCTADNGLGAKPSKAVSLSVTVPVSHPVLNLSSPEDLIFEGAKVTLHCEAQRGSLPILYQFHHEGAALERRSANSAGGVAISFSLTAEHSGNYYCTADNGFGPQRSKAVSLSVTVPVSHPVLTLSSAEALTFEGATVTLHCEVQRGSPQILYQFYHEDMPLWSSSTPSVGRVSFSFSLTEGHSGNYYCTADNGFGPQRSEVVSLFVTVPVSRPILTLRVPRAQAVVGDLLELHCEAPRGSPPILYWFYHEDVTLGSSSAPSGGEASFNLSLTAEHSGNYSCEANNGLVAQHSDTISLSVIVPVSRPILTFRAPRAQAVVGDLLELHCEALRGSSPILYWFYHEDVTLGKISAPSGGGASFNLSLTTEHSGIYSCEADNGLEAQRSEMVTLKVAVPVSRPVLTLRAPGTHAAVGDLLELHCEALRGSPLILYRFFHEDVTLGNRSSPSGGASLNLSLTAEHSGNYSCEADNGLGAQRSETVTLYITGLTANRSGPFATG


Columns and labels:
[1] = target: T1, human FcRH5 protein fragment (soluble); assay: SPR, hIgG capture, screening
Description: (§1) Briefly, a human IgG capture surface was generated on a Series S CM5 chip using amine coupling and the human IgG capture kit (GE Life Sciences, Piscataway, NJ). Test antibodies were then captured on flow cells 2, 3, or 4, with flow cell 1 used as a reference. An FcRH5 protein fragment was used as the analyte, with a flow rate of […]. Between injections the capture surface was regenerated by a 30-second injection of 3M magnesium chloride or 10 mM glycine, pH 1.5. Interactions were assessed at 25° C. in 10 mM HEPES pH7.4, 150 mM NaCl, and 0.05% Tween 20 (HBSP). Reference data from the reference flow cell and from injection of buffer alone were subtracted prior to kinetic analysis. Kinetic information was calculated by fitting data to a 1:1 binding model. Reference subtraction and data fitting were performed using BIAevaluation software (GE Life Sciences, Piscataway, NJ).
(§2) For affinity screening of HVR-H2 Trp52 and Met64 variants (Table 7), antibodies were expressed by transient transfection of Expi293 cells and purified using tip columns that were custom packed with affinity resin MabSelect SuRe (Glygen Corp., Columbia, MD & GE Life Sciences, Piscataway, NJ). […] Binding of FcRH5 protein fragment to captured antibodies was monitored at 100 nM and 500 nM. Association and dissociation were monitored at a flow rate of 40 μl/min, for 180 s and 300 s, respectively.

[2] = target: T1, human FcRH5 protein fragment (soluble); assay: SPR (BIACORE), IgG captured via anti-human IgG, FcRH5 protein fragment as analyte (100 and 500 nM)
Description: as §1, §2

| Binder | Kd [1] | Kd [2] |
| --- | --- | --- |
| hu1G7.v1 heavy chain M64F with light chain of hu1G7.v1 (antibody, V domains shown, human IgG) VH: EVQLVESGPGLVKPSETLSLTCTVSGFSLTRFGVHWVRQPPGKGLEWLGVIWRGGSTDYNAAFFSRLTISKDNSKNQVSLKLSSVTAADTAVYYCSNHYYGSSDYALDNWGQGTLVTVSS VL: DIQMTQSPSSLSASVGDRVTITCKASQDVSNIVVWFQQKPGKSPKLLIYSASYRYTGVPSRFSGSGSGTDFTLTISSLQPEDFATYYCQQHYSSPYTFGQGTKVEIK | 26 nM | 25.9 nM |
| hu1G7.v1 heavy chain M64I with light chain of hu1G7.v1.7 (antibody, V domains shown, human IgG) VH: EVQLVESGPGLVKPSETLSLTCTVSGFSLTRFGVHWVRQPPGKGLEWLGVIWRGGSTDYNAAFISRLTISKDNSKNQVSLKLSSVTAADTAVYYCSNHYYGSSDYALDNWGQGTLVTVSS VL: DIQMTQSPSSLSASVGDRVTITCKASQDVRNLVVWFQQKPGKAPKLLIYSGYYRYTGVPSRFSGSGSGTDFTLTISSLQPEDFATYYCQQHYQPPYTFGQGTKVEIK | 2.6 nM | 2.6 nM |
| hu1G7.v1 heavy chain M64L with light chain of hu1G7.v1.4 (antibody, V domains shown, human IgG) VH: EVQLVESGPGLVKPSETLSLTCTVSGFSLTRFGVHWVRQPPGKGLEWLGVIWRGGSTDYNAAFLSRLTISKDNSKNQVSLKLSSVTAADTAVYYCSNHYYGSSDYALDNWGQGTLVTVSS VL: DIQMTQSPSSLSASVGDRVTITCKASQDVRNLVVWFQQKPGKAPKLLIYSGSYRYSGVPSRFSGSGSGTDFTLTISSLQPEDFATYYCQQHYSPPYTFGQGTKVEIK | 2.5 nM | 2.5 nM |
| hu1G7.v1 heavy chain M64L with light chain of hu1G7.v1 (antibody, V domains shown, human IgG) VH: EVQLVESGPGLVKPSETLSLTCTVSGFSLTRFGVHWVRQPPGKGLEWLGVIWRGGSTDYNAAFLSRLTISKDNSKNQVSLKLSSVTAADTAVYYCSNHYYGSSDYALDNWGQGTLVTVSS VL: DIQMTQSPSSLSASVGDRVTITCKASQDVSNIVVWFQQKPGKSPKLLIYSASYRYTGVPSRFSGSGSGTDFTLTISSLQPEDFATYYCQQHYSSPYTFGQGTKVEIK | 27 nM | 26.5 nM |
| hu1G7.v1 heavy chain M64F with light chain of hu1G7.v1.4 (antibody, V domains shown, human IgG) VH: EVQLVESGPGLVKPSETLSLTCTVSGFSLTRFGVHWVRQPPGKGLEWLGVIWRGGSTDYNAAFFSRLTISKDNSKNQVSLKLSSVTAADTAVYYCSNHYYGSSDYALDNWGQGTLVTVSS VL: DIQMTQSPSSLSASVGDRVTITCKASQDVRNLVVWFQQKPGKAPKLLIYSGSYRYSGVPSRFSGSGSGTDFTLTISSLQPEDFATYYCQQHYSPPYTFGQGTKVEIK | 2.5 nM | 2.5 nM |
| hu1G7.v1 heavy chain M64I with light chain of hu1G7.v1 (antibody, V domains shown, human IgG) VH: EVQLVESGPGLVKPSETLSLTCTVSGFSLTRFGVHWVRQPPGKGLEWLGVIWRGGSTDYNAAFISRLTISKDNSKNQVSLKLSSVTAADTAVYYCSNHYYGSSDYALDNWGQGTLVTVSS VL: DIQMTQSPSSLSASVGDRVTITCKASQDVSNIVVWFQQKPGKSPKLLIYSASYRYTGVPSRFSGSGSGTDFTLTISSLQPEDFATYYCQQHYSSPYTFGQGTKVEIK | 30 nM | 29.8 nM |
| hu1G7.v1 heavy chain M64I with light chain of hu1G7.v1.5 (antibody, V domains shown, human IgG) VH: EVQLVESGPGLVKPSETLSLTCTVSGFSLTRFGVHWVRQPPGKGLEWLGVIWRGGSTDYNAAFISRLTISKDNSKNQVSLKLSSVTAADTAVYYCSNHYYGSSDYALDNWGQGTLVTVSS VL: DIQMTQSPSSLSASVGDRVTITCKASQDVSNIVVWFQQKPGKSPKLLIYSGYYRYTGVPSRFSGSGSGTDFTLTISSLQPEDFATYYCQQQFQPPYTFGQGTKVEIK | 2.7 nM | 2.7 nM |
| hu1G7.v1 heavy chain M64I with light chain of hu1G7.v1.4 (antibody, V domains shown, human IgG) VH: EVQLVESGPGLVKPSETLSLTCTVSGFSLTRFGVHWVRQPPGKGLEWLGVIWRGGSTDYNAAFISRLTISKDNSKNQVSLKLSSVTAADTAVYYCSNHYYGSSDYALDNWGQGTLVTVSS VL: DIQMTQSPSSLSASVGDRVTITCKASQDVRNLVVWFQQKPGKAPKLLIYSGSYRYSGVPSRFSGSGSGTDFTLTISSLQPEDFATYYCQQHYSPPYTFGQGTKVEIK | 2.5 nM | 2.5 nM |
| hu1G7.v1 heavy chain M64I with light chain of hu1G7.v1.6 (antibody, V domains shown, human IgG) VH: EVQLVESGPGLVKPSETLSLTCTVSGFSLTRFGVHWVRQPPGKGLEWLGVIWRGGSTDYNAAFISRLTISKDNSKNQVSLKLSSVTAADTAVYYCSNHYYGSSDYALDNWGQGTLVTVSS VL: DIQMTQSPSSLSASVGDRVTITCKASQDVSNIVVWFQQKPGKAPKLLIYSGYYRYSGVPSRFSGSGSGTDFTLTISSLQPEDFATYYCQQQYQPPYTFGQGTKVEIK | 2.7 nM | 2.7 nM |
| hu1G7.v1 heavy chain M64F with light chain of hu1G7.v1.6 (antibody, V domains shown, human IgG) VH: EVQLVESGPGLVKPSETLSLTCTVSGFSLTRFGVHWVRQPPGKGLEWLGVIWRGGSTDYNAAFFSRLTISKDNSKNQVSLKLSSVTAADTAVYYCSNHYYGSSDYALDNWGQGTLVTVSS VL: DIQMTQSPSSLSASVGDRVTITCKASQDVSNIVVWFQQKPGKAPKLLIYSGYYRYSGVPSRFSGSGSGTDFTLTISSLQPEDFATYYCQQQYQPPYTFGQGTKVEIK | 2.6 nM | 2.6 nM |

These reach a lower Kd [1]. Values come first.

| Kd [1] | Kd [2] | Binder |
| --- | --- | --- |
| 2.4 nM | 2.4 nM | hu1G7.v1 heavy chain M64L with light chain of hu1G7.v1.3 (antibody, V domains shown, human IgG) VH: EVQLVESGPGLVKPSETLSLTCTVSGFSLTRFGVHWVRQPPGKGLEWLGVIWRGGSTDYNAAFLSRLTISKDNSKNQVSLKLSSVTAADTAVYYCSNHYYGSSDYALDNWGQGTLVTVSS VL: DIQMTQSPSSLSASVGDRVTITCKASQDVRNIVVWFQQKPGKAPKLLIYSGSYRYSGVPSRFSGSGSGTDFTLTISSLQPEDFATYYCQQQYSPPYTFGQGTKVEIK |
| 2.3 nM | 2.3 nM | hu1G7.v1 heavy chain M64L with light chain of hu1G7.v1.5 (antibody, V domains shown, human IgG) VH: EVQLVESGPGLVKPSETLSLTCTVSGFSLTRFGVHWVRQPPGKGLEWLGVIWRGGSTDYNAAFLSRLTISKDNSKNQVSLKLSSVTAADTAVYYCSNHYYGSSDYALDNWGQGTLVTVSS VL: DIQMTQSPSSLSASVGDRVTITCKASQDVSNIVVWFQQKPGKSPKLLIYSGYYRYTGVPSRFSGSGSGTDFTLTISSLQPEDFATYYCQQQFQPPYTFGQGTKVEIK |
| 2.4 nM | 2.4 nM | hu1G7.v1 heavy chain M64F with light chain of hu1G7.v1.7 (antibody, V domains shown, human IgG) VH: EVQLVESGPGLVKPSETLSLTCTVSGFSLTRFGVHWVRQPPGKGLEWLGVIWRGGSTDYNAAFFSRLTISKDNSKNQVSLKLSSVTAADTAVYYCSNHYYGSSDYALDNWGQGTLVTVSS VL: DIQMTQSPSSLSASVGDRVTITCKASQDVRNLVVWFQQKPGKAPKLLIYSGYYRYTGVPSRFSGSGSGTDFTLTISSLQPEDFATYYCQQHYQPPYTFGQGTKVEIK |
| 1.4 nM | 1.4 nM | hu1G7.v1 heavy chain M64F with light chain of hu1G7.v1.5 (antibody, V domains shown, human IgG) VH: EVQLVESGPGLVKPSETLSLTCTVSGFSLTRFGVHWVRQPPGKGLEWLGVIWRGGSTDYNAAFFSRLTISKDNSKNQVSLKLSSVTAADTAVYYCSNHYYGSSDYALDNWGQGTLVTVSS VL: DIQMTQSPSSLSASVGDRVTITCKASQDVSNIVVWFQQKPGKSPKLLIYSGYYRYTGVPSRFSGSGSGTDFTLTISSLQPEDFATYYCQQQFQPPYTFGQGTKVEIK |
| 2.1 nM | 2.1 nM | hu1G7.v1 heavy chain M64I with light chain of hu1G7.v1.3 (antibody, V domains shown, human IgG) VH: EVQLVESGPGLVKPSETLSLTCTVSGFSLTRFGVHWVRQPPGKGLEWLGVIWRGGSTDYNAAFISRLTISKDNSKNQVSLKLSSVTAADTAVYYCSNHYYGSSDYALDNWGQGTLVTVSS VL: DIQMTQSPSSLSASVGDRVTITCKASQDVRNIVVWFQQKPGKAPKLLIYSGSYRYSGVPSRFSGSGSGTDFTLTISSLQPEDFATYYCQQQYSPPYTFGQGTKVEIK |
| 2.2 nM | 2.2 nM | hu1G7.v1 heavy chain M64F with light chain of hu1G7.v1.3 (antibody, V domains shown, human IgG) VH: EVQLVESGPGLVKPSETLSLTCTVSGFSLTRFGVHWVRQPPGKGLEWLGVIWRGGSTDYNAAFFSRLTISKDNSKNQVSLKLSSVTAADTAVYYCSNHYYGSSDYALDNWGQGTLVTVSS VL: DIQMTQSPSSLSASVGDRVTITCKASQDVRNIVVWFQQKPGKAPKLLIYSGSYRYSGVPSRFSGSGSGTDFTLTISSLQPEDFATYYCQQQYSPPYTFGQGTKVEIK |
